For experiment [1], the system named is PGs of B. mori. As to the kind of experiment: Ecdysone biosynthesis in cultured PGs (LC-MS/MS). The class given is cell-based, Bombyx mori. As for the experimental part: Two strains of the silkworm B. mori were used for this study. The p50T strain was used for NGS analysis and tissue distribution analysis, and the Kinshu x Showa strain was used for other experiments. The p50T strain was reared on mulberry leaves at room temperature. The Kinshu x Showa strain was reared on an artificial diet (SilkMate PS: Nihon Nosan Kogyo) at 25°C under a 16L:8D photoperiod. The first feeding day was designated as day 0.
Dissected PGs were rinsed with Grace's insect culture medium (Gibco) and pre-cultured individually in 100 µl medium in 96-well plates (BD Falcon) at 25°C for 30 min. To evaluate the effect of extracellular Ca^2+ on ecdysone biosynthesis, lepidopteran saline and lepidopteran saline using NaCl as a replacement for CaCl2 were used. For the pharmacological analysis, the PG was pre-treated with the inhibitor for 15 min during the pre-culture period. Following this treatment, the PG was cultured in the desired conditions for the desired period (Ecdysone assay: 3 hours; cAMP assay: 30 min; and Protein phosphorylation assay: 15 min). Actinomycin D, H-89 and cycloheximide (CHX) were purchased from Sigma; Rapamycin was purchased from Santa Cruz Biotechnology; and LY294002 was purchased from Merck. H-89 was dissolved in water. The other inhibitors were dissolved in DMSO. […]
Prior to ecdysteroids extraction, the 100 µl of cultured medium was diluted with equal volume of MilliQ water. […] Quantification of ecdysteroids using LC-MS/MS was performed as previously described with some modifications. […] The separated ecdysteroids were quantified with the QTRAP5500 MS/MS system (AB SCIEX) using MRM mode. For the quantitative analysis, standard curves were generated with concentrations of 0.98–1000 ng/ml.
The effect of PDF and DH31 on ecdysone biosynthesis was evaluated in the PGs of B. mori. The PGs of V7 larvae were cultured with PDF or DH31, and the amount of ecdysone synthesized was measured using LC-MS/MS [21]. […]
Figure 3 Prothoracicotropic activities of PDF in vitro. […] Statistically significant differences were evaluated by Student's t-test (***P<0.001, **P<0.01, *P<0.05).

Experiment [2] has as its system PGs. The conditions noted are these: cited from earlier work. The text has this:
In many cases, a single hormone has multiple functions regulating many physiological phenomena. Thus, both the regulation of receptor expression in the target tissue and the regulation of hormone release are important for the hormone to only affect the target tissue at the appropriate time. In the case of PTTH, the titer of the hormone in the hemolymph is clearly correlated with the ecdysteroid titer ... || In insects, neuropeptide hormones affect the target tissue via humoral and neuronal pathways. […] The increase in intracellular cAMP is thought to be regulated by Ca^2+ signaling in the PTTH signaling pathway, [37]. […] PDF sig ... || (+ 1 further places)

The EC50 is the midpoint of the concentration-response curve.

B1: PTTH: prothoracicotropic hormone, humoral pathway-mediated tropic hormone (protein, UniProt P17219 116-224, looked up)
Prothoracicotropic hormone: GNIQVENQAIPDPPCTCKYKKEIEDLGENSVPRFIETRNCNKTQQPTCRPPYICKESLYSITILKRRETKSQESLEIPNELKYRWVAESHPVSVACLCTRDYQLRYNNN
modifications: Prothoracicotropic hormone
Take B1: in experiment [1] (Ca2+-free lepidopteran saline (CaCl2 replaced by NaCl), n = 6), the “ecdysone biosynthesis without extracellular Ca2+” value is given as “did not induce ecdysone biosynthesis”. In experiment [1] (dose-response, cultured PGs of V7 larvae, 3 hours, LC-MS/MS, PTTH n = 10–38, read-out: EC50 (ecdysone biosynthesis, prothoracicotropic activity)), the EC50 was found to be 108 pM. For the same molecule, in experiment [1] (dose-response, cultured PGs of V7 larvae, LC-MS/MS), the “concentration of highest prothoracicotropic activity” value is recorded as 10^−9 M. Further, the “response of V4 PGs, ecdysone synthesis in vitro (literature)” value in experiment [2] (PGs of V4, ref [8]) is “capable of responding to PTTH stimulus and synthesize ecdysone in vitro”. In addition, in experiment [2] (extracellular Ca2+ depleted, ref [27], [37]), the “ecdysone biosynthesis when extracellular Ca2+ is depleted (literature)” value is “cannot stimulate ecdysone biosynthesis when extracellular Ca^2+ is depleted”. The “effect of a transcription inhibitor on PTTH- and dbcAMP-induced ecdysone biosynthesis (literature)” value in experiment [2] (ref [39]) is “ecdysone biosynthesis was suppressed by a transcription inhibitor”.

The record behind these values is publication PMC4114559, “Pigment Dispersing Factor Regulates Ecdysone Biosynthesis via Bombyx Neuropeptide G Protein Coupled Receptor-B2 in the Prothoracic Glands of Bombyx mori” (PLoS ONE, 2014).
